Data published in US6335176B1, “Incorporation of phosphorylation sites” (Pharmacopeia, Inc., priority 1998, dated 2002).
Bridge positions count the residues as written; N and C are the ends. Square brackets hold non-standard residues; d marks the D form. Ends that are not written are not given here. I, II: the chains in the order shown. pS = N[C@@H](COP(=O)(O)O)C(=O)O

Legend:
EpoR-Fc = biological target: T1, EpoR-Fc (Homo sapiens, UniProt P19235); assay: Saturation binding of Epo-Fc-[33P]phosphopeptide A to EpoR-Fc surface-coated plates
T1 construct: containing the extracellular domain of the erythropoietin receptor fused to the Fc region of human IgG
T1 sequence (P19235 25-250 limits assumed): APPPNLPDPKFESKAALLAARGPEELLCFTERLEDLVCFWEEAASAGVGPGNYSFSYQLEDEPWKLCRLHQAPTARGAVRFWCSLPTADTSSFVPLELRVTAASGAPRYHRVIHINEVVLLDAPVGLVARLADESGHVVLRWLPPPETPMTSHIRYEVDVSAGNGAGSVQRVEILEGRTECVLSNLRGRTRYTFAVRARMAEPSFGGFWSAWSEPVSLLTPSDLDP
Protocol: (§1) Ligand Binding Assays in Elisa Plate Format. Costar EIA 96-well microtiter plates (assay plates) were coated with 40 ul/well of a solution of anchoring antibody (˜1-5 ug/ml) or binding protein (0.1-0.5 ug/ml) in TBS and incubated overnight at 4° C. Plates were then blocked with 80 ul/well of 1% BSA/TBS for 30 min. Following removal of the blocking protein, 40 ul/well of receptor or receptor fusion protein (0.1-0.5 ug/ml) was added to the plate and incubated at ambient temperature for one hr. if an anchoring antibody step was used. The assay plate was then washed with TBS/0.01% BSA and 40 ul/well ligand at indicated concentrations was added. The assay plate was allowed to incubate at ambient temp. for ˜1-3 hr. with shaking and then washed three times with TBS/0.01% Tween 20 using a SkanWasher300 plate washer (Skatron, Sterling, Va.). Radiolabel was detected by the addition of 80 ul/well of Optiphase (Wallac, Turku, Finland) and the assay plate counted on a Wallace MicroBeta scintillation counter.
The cytokine receptor for erythropoietin was studied as a recombinant soluble Fc-fusion protein containing the extracellular domain of the erythropoietin receptor fused to the Fc region of human IgG. The ligand for this receptor, erythropoietin (Epo) was also prepared as an Fc-fusion, specifically as a fusion to the Fc region of mouse IgG. […]

CXC2 receptor = biological target: T2, CXC2 receptor (Homo sapiens, UniProt P25025); assay: Binding of IL8-[33P]phosphopeptide A to CXC2 receptors on CHO cells
T2 construct: expressed in transfected cells; host or cells: CHO cells
T2 sequence (P25025 1-360): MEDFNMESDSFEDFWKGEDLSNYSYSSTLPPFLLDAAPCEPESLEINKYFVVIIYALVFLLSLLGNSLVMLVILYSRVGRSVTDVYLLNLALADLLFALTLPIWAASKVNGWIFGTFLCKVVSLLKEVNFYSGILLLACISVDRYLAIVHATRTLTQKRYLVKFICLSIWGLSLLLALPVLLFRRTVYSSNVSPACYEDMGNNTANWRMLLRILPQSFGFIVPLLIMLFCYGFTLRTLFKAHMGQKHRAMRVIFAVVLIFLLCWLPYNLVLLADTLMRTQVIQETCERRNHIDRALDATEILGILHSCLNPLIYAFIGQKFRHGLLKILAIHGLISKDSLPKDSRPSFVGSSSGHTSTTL
Protocol: (§2) Ligand Binding Assays using Cells or Membranes. Cultured cells expressing the receptor of interest were suspended to ˜1.6×10^6 per ml in DMEM containing 0.1% FBS. 100 ul aliquots were incubated in a 96-well U-bottom polypropylene microtiter plate (assay plate) containing the indicated ligands. After the appropriate incubation time (˜1-3 hrs) cells were transferred to 1.5 ml eppendorf tubes and centrifuged at 2000 rpm (358×g) for 2 min at 6° C., supernatants aspirated and cells resuspended in 1 ml cell media and centrifuged again. The washed cells were resuspended in 20 ul of cell media and transferred to a microtiter plate, 80 ul/well of Optiphase® (Wallac, Turku, Finland) scintillation cocktail added and plates counted in a Wallac MicroBeta scintillation counter. For cells or membranes harvested by filtration, transfers from the assay plate were made directly to a Millipore 1.2 um GF/C filter plate treated or untreated with 0.3% PEI. Wells were washed with DMEM (3×100 ul) and a final wash with 100 ul water. Scintillation cocktail was added as described above.
(§3) Several ligands for commonly studied receptor families, G protein-coupled receptors (GPCRs) and cytokine receptors were labeled using the reagent of the invention. […]

NK2 receptor = biological target: T3, NK2 receptor (Rattus norvegicus, UniProt P16610); assay: Binding of NKA-[33P]phosphopeptide A to NK2 receptors on CHO cells (whole cell)
T3 construct: expressed in transfected cells; host or cells: CHO cells
T3 sequence (P16610 1-390): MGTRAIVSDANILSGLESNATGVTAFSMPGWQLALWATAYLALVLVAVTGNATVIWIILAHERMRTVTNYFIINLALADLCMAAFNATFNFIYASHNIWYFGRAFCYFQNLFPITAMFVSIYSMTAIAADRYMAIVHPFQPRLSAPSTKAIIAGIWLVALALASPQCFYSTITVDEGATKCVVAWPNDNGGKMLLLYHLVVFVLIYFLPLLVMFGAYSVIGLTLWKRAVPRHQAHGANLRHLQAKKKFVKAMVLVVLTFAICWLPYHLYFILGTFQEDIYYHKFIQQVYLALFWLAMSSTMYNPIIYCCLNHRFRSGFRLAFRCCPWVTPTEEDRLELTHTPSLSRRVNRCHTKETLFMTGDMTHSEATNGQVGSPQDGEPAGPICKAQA
Protocol: as §2, §3

ObR-Fc = biological target: T4, ObR-Fc (Homo sapiens, UniProt P48357); assay: Saturation binding of leptin-[33P]phosphopeptide A to ObR-Fc surface-coated plates; details: at the highest concentration of labeled ligand
T4 construct: containing the extracellular domain of the ObR fused to the Fc region of human IgG; purchased R&D Systems, Minneapolis, Minn
T4 sequence (P48357 22-839 limits assumed): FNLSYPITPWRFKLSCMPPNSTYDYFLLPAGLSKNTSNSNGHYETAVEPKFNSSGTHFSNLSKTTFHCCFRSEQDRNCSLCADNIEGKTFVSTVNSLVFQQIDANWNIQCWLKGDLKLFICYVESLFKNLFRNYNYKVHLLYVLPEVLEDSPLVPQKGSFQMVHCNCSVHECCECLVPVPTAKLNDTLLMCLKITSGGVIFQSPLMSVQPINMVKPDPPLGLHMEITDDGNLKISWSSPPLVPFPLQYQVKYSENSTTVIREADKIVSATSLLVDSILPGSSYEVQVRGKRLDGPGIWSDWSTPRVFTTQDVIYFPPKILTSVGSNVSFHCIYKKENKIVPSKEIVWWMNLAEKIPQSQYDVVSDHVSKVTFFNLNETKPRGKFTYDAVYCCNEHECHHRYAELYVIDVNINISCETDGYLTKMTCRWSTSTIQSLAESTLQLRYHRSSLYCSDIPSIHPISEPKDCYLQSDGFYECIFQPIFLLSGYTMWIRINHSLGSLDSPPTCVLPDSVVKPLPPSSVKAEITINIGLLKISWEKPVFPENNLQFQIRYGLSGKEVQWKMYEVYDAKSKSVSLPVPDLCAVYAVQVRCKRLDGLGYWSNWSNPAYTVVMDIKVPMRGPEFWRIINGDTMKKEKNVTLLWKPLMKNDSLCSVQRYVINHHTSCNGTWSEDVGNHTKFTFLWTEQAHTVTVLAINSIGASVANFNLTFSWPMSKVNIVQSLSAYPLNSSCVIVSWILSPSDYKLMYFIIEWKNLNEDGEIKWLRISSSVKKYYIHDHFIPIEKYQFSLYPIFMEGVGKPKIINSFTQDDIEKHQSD
Protocol: as §1
The cytokine receptor for leptin, the Ob receptor (ObR), was studied as a soluble Fc-fusion protein containing the extracellular domain of the ObR fused to the Fc region of human IgG (R&D Systems, Minneapolis, Minn.). The ligand for this receptor, leptin (R&D Systems) was phosphorylated according to the method of invention as described above.

[1] = biological target: NK2 receptor recombinantly expressed in CHO cells; assay: saturation radioligand binding, CHO cells, 160,000 cells/assay (FIG. 9A)
[2] = saturation binding, 160,000 cells/assay

Sequence of NK2 receptor recombinantly expressed in CHO cells (P21452 whole entry): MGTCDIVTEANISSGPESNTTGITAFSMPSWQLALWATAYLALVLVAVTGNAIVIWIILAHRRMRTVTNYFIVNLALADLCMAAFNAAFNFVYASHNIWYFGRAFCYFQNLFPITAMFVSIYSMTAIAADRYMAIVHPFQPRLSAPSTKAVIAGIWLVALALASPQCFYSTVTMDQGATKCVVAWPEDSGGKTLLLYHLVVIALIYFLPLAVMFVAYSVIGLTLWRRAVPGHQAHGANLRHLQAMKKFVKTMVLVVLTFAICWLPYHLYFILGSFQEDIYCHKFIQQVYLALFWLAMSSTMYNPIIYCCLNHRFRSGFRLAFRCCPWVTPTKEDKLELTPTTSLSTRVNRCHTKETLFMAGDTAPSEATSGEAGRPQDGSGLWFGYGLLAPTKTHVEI

N-α-acetyl-S-[Epo-Fc-8-amido-(6-aminothioacetyl)hexonyl]cys-ser-arg-arg-ala-[^33PO3]phosphoser-val-tyr-amide [Epo-Fc-[^33P]phosphopeptide A]
amount detected at the highest concentration of labeled ligand (EpoR-Fc): ~20 Fmol/well

N-α-acetyl-S-[IL8-amido-(6-aminothioacetyl)hexonyl]cys-ser-arg-arg-ala-[^33PO3]phosphoser-val-tyr-amide1-4 [IL8-[^33P]phosphopeptide A]
specific binding to its receptor (CXC2 receptor; 33P-labeled ligand, FIG. 8): bound specifically
Bmax (CXC2 receptor; [2]): 110,000 receptors/cell

N-α-acetyl-S-[NKA-lys2N^e-amido-(6-aminothioacetyl)hexonyl]cys-ser-arg-arg-ala-[^33PO3]phosphoser-val-tyr-amide (peptide 1 HKTRSFVGLM-NH2; peptide 2 Ac-CSRRASVY-NH2; bridge I:2-II:1; not fully specified (some residues, bridges); printed as N-α-acetyl-S-[NKA-lys2N^e-amido-(6-aminothioacetyl)hexonyl]cys-ser-arg-arg-ala-[^33PO3]phosphoser-val-tyr-amide; also: phosphoserine carries [33P]phosphate label) [NKA-[^33P]phosphopeptide A]
specific binding to its receptor (NK2 receptor; 33P-labeled ligand, FIG. 8): bound specifically
Bmax (NK2 receptor; [2]): 700,000 receptors/cell

N-α-acetyl-S-[leptin-amido-)6-aminothioacetyl)hexonyl]cys-ser-arg-arg-ala-[^33PO3]phosphoser-val-tyr-amide1-2 [leptin [^33P]phosphopeptide A]
saturation binding (ObR-Fc): Binding was detected

B1: Neurokinin A-[^33PO3]peptide A conjugate (NKA-lys2N^e-[^33PO3]peptide A) (peptide)
peptide 1: HKTRSFVGLM-NH2
peptide 2: Ac-CSRRA[pS]VY-NH2
modifications: bridge I:2-II:1; not fully specified (some residues, bridges); printed as N-&agr,-acetyl-S-[NKA-lys2Ne-amido-(6-aminothioacetyl)hexonyl]cys-ser-arg-arg-ala-[33PO3]phosphoser-val-tyr-amide; also: 33P-labelled phosphate on phosphoserine of chain 2
Bmax (receptors/cell) [1]: 700000
